Assay results: patent US20040018971A1 (published 2004)

B1: HER2/neu peptide, position 1213, 9 amino acids (peptide)
peptide: FSPAFDNLY
B2: HER2/neu A11 motif peptide, position 491, 9 amino acids (peptide)
peptide: QALLHTANR
notes: also called HER2/neu 491-499
B3: HER2/neu A11 motif peptide, position 360, 10 amino acids (peptide)
peptide: NIQEFAGCKK
notes: also called HER2/neu 360-369
B4: HER2/neu A11 motif peptide, position 90, 9 amino acids (peptide)
peptide: QVRQVPLQR
notes: also called HER2/neu 90-98
B5: HER2/neu A11 motif peptide, position 181, 10 amino acids (peptide)
peptide: LTLIDTNRSR
notes: also called HER2/neu 181-190
B6: HER2/neu A11 motif peptide, position 841, 9 amino acids (peptide)
peptide: LVHRDLAAR
notes: also called HER2/neu 841-849
B7: HER2/neu A11 motif peptide, position 745, 10 amino acids (peptide)
peptide: NVKIPVAIKV
notes: Built as this row prints it (length 10); also called HER2/neu 745-754
B8: HER2/neu A11 motif peptide, position 601, 10 amino acids (peptide)
peptide: PSGVKPDLSY
notes: also called HER2/neu 601-610
B9: HER2/neu A11 motif peptide, position 960, 9 amino acids (peptide)
peptide: MIDSECRPR
B10: HER2/neu A11 motif peptide, position 889, 10 amino acids (peptide)
peptide: MALESILRRR
notes: also called HER2/neu 889-898
B11: HER2/neu A11 motif peptide, position 795, 9 amino acids (peptide)
peptide: QLVTQLMPY
notes: also called HER2/neu 795-803
B12: HER2/neu A11 motif peptide, position 1014, 10 amino acids (peptide)
peptide: MGDLVDAEEY
notes: also called HER2/neu 1014-1023
B13: HER2/neu A11 motif peptide, position 24, 9 amino acids (peptide)
peptide: QVCTGTDMK
notes: also called HER2/neu 24-32
B14: HER2/neu A11 motif peptide, position 1119, 9 amino acids (peptide)
peptide: PLPSETDGY
notes: also called HER2/neu 1119-1127
B15: HER2/neu A11 motif peptide, position 95, 9 amino acids (peptide)
peptide: PLQRLRIVR
B16: HER2/neu A11 motif peptide, position 1162, 10 amino acids (peptide)
peptide: PAGATLERPK
notes: also called HER2/neu 1162-1171
B17: HER2/neu A11 motif peptide, position 996, 10 amino acids (peptide)
peptide: PASPLDSTFY
notes: also called HER2/neu 996-1005
B18: HER2/neu A11 motif peptide, position 360, 9 amino acids (peptide)
peptide: NIQEFAGCK
B19: HER2/neu A11 motif peptide, position 1130, 10 amino acids (peptide)
peptide: PLTCSPQPEY
B20: HER2/neu A11 motif peptide, position 1102, 10 amino acids (peptide)
peptide: PTHDPSPLQR
notes: also called HER2/neu 1102-1111
B21: Her2/neu.642.F1 (peptide)
peptide: FPAEQRASPL
notes: 10-mer analog of the HER2/neu peptide starting at position 642
B22: Her2/neu.884.F1I8 (peptide)
peptide: FPIKWMAI
notes: 8-mer analog of the HER2/neu peptide starting at position 884
B23: Her2/neu.884.F1 (peptide)
peptide: FPIKWMAL
notes: 8-mer analog of the HER2/neu peptide starting at position 884; also called FPIKWMAL
B24: Her2/neu.779.F1, 10-mer (peptide)
peptide: FPYVSRLLGI
notes: 10-mer analog of the HER2/neu peptide starting at position 779; same label as the 8-mer in r55
B25: Her2/neu.706.I11 (peptide)
peptide: MPNQAQMRILI
notes: 11-mer analog of the HER2/neu peptide starting at position 706
B26: Her2/neu.921.F1 (peptide)
peptide: FPYDGIPA
notes: 8-mer analog of the HER2/neu peptide starting at position 921
B27: Her2/neu.921.F1I8 (peptide)
peptide: FPYDGIPI
notes: as for B26
B28: Her2/neu.701.F1 (peptide)
peptide: FPSGAMPNQI
notes: the label names only F1 though the C-terminus is I
B29: Her2/neu.698.F1 (peptide)
peptide: FPLTPSGAM
notes: 9-mer analog of the HER2/neu peptide starting at position 698
B30: Her2/neu.779.F1, 8-mer (peptide)
peptide: FPYVSRLL
notes: 8-mer analog of the HER2/neu peptide starting at position 779; same label as the 10-mer in r56
B31: Her2/neu.706.F1, 9-mer (peptide)
peptide: FPNQAQMRI
notes: 9-mer analog of the HER2/neu peptide starting at position 706; same label as the 10-mer in r51
B32: Her2/neu.706.F1, 10-mer (peptide)
peptide: FPNQAQMRIL
notes: 10-mer analog of the HER2/neu peptide starting at position 706; same label as the 9-mer in r49
B33: Her2/neu.801.I11 (peptide)
peptide: MPYGCLLDHVI
notes: 11-mer analog of the HER2/neu peptide starting at position 801
B34: Her2/neu.649.F1, 10-mer (peptide)
peptide: FPLTSIISAV
notes: 10-mer analog of the HER2/neu peptide starting at position 649; same label as the 9-mer in r40
B35: Her2/neu.649.F1I10 (peptide)
peptide: FPLTSIISAI
notes: 10-mer analog of the HER2/neu peptide starting at position 649
B36: Her2/neu.760.F1, 9-mer (peptide)
peptide: FPKANKEIL
notes: 9-mer analog of the HER2/neu peptide starting at position 760; same label as the 8-mer in r52
B37: Her2/neu.649.F1I9 (peptide)
peptide: FPLTSIISI
notes: 9-mer analog of the HER2/neu peptide starting at position 649
B38: Her2/neu.649.F1, 9-mer (peptide)
peptide: FPLTSIISA
notes: 9-mer analog of the HER2/neu peptide starting at position 649; same label as the 10-mer in r43
B39: Her2/neu.649.F1I11 (peptide)
peptide: FPLTSIISAVI
notes: 11-mer analog of the HER2/neu peptide starting at position 649
B40: HER2/neu peptide, position 220, 9 amino acids (peptide)
peptide: CAGGCARCK
B41: HER2/neu peptide, position 845, 10 amino acids (peptide)
peptide: DLAARNVLVK
B42: HER2/neu peptide, position 596, 10 amino acids (peptide)
peptide: CVARCPSGVK
B43: HER2/neu peptide, position 195, 9 amino acids (peptide)
peptide: CSPMCKGSR
B44: HER2/neu peptide, position 1144, 10 amino acids (peptide)
peptide: DVRPQPPSPR
B45: HER2/neu peptide, position 962, 9 amino acids (peptide)
peptide: DSECRPRFR
B46: HER2/neu peptide, position 240, 9 amino acids (peptide)
peptide: CAAGCTGPK
B47: HER2/neu peptide, position 805, 10 amino acids (peptide)
peptide: CLLDHVRENR
B48: HER2/neu peptide, position 997, 9 amino acids (peptide)
peptide: ASPLDSTFY
B49: HER2/neu peptide, position 607, 9 amino acids (peptide)
peptide: DLSYMPIWK
B50: HER2/neu peptide, position 528, 9 amino acids (peptide)
peptide: CVNCSQFLR
notes: also called Her2/neu.528
B51: HER2/neu peptide, position 334, 10 amino acids (peptide)
peptide: CSKPCARVCY
B52: HER2/neu peptide, position 295, 9 amino acids (peptide)
peptide: CVTACPYNY
B53: HER2/neu peptide, position 26, 9 amino acids (peptide)
peptide: CTGTDMKLR
B54: Her2/neu.669 (AA 9) (peptide)
peptide: VVFGILIKR
notes: synthetic peptide; the 9-mer and the 10-mer carry the same source label Her2/neu.669
B55: Her2/neu.217 (peptide)
peptide: RTVCAGGCAR
notes: synthetic peptide

biological target: T1, HLA-A*0301 (human); assay: inhibition of 125I-labelled probe peptide binding to purified HLA-A*0301, gel filtration; ratio to standard peptide 941.12 ([..], 11 nM)
T1 construct: also called HLA-A3

Binder	relative binding ratio (IC50 of standard peptide / IC50 of test peptide)
B1	0.0002

biological target: HLA-A*1101 (human); assay: inhibition of 125I-labelled probe peptide binding to purified HLA-A*1101, gel filtration; relative to standard peptide 940.06

Binder	relative binding ratio
B2	0.001 ratio (IC50 of standard peptide / IC50 of test peptide)
B3	0.0056 ratio (IC50 of standard peptide / IC50 of test peptide)
B4	0.0005 ratio (IC50 of standard peptide / IC50 of test peptide)
B5	0.0005 ratio (IC50 of standard peptide / IC50 of test peptide)
B6	0.0014 ratio (IC50 of standard peptide / IC50 of test peptide)
B7	0.0007 ratio (IC50 of standard peptide / IC50 of test peptide)
B8	0.0003 ratio (IC50 of standard peptide / IC50 of test peptide)
B9	0.0006 ratio (IC50 of standard peptide / IC50 of test peptide)
B10	0.0003 ratio (IC50 of standard peptide / IC50 of test peptide)
B11	0.0039 ratio (IC50 of standard peptide / IC50 of test peptide)
B12	0.0002 ratio (IC50 of standard peptide / IC50 of test peptide)
B13	0.052 ratio (IC50 of standard peptide / IC50 of test peptide)
B14	0.0002 ratio (IC50 of standard peptide / IC50 of test peptide)
B15	0.0001 ratio (IC50 of standard peptide / IC50 of test peptide)
B16	-0.0002 ratio (IC50 of standard peptide / IC50 of test peptide)
B17	0.0001 ratio (IC50 of standard peptide / IC50 of test peptide)
B18	0.0036 ratio (IC50 of standard peptide / IC50 of test peptide)
B19	0.0002 ratio (IC50 of standard peptide / IC50 of test peptide)
B20	0.0001 ratio (IC50 of standard peptide / IC50 of test peptide)

biological target: HLA-B*3501 (human); assay: competition vs 125I-labeled standard peptide, purified HLA

Binder	IC50 [nM]
B21	248
B22	1140
B23	248
B24	3600
B25	1800
B26	206
B27	379
B28	6550
B29	16
B30	600
B31	108
B32	200
B33	4.2
B34	300
B35	327
B36	4500
B37	118
B38	21
B39	96

biological target: HLA-B*5401 (human); assay: as above

Binder	IC50 [nM]
B21	286
B22	33
B23	40
B24	9.1
B25	303
B26	1
B27	56
B28	100
B29	91
B30	172
B31	4.5
B32	31
B33	7.7
B34	1.2
B35	3.3
B36	77
B37	1.5
B38	1.4
B39	2.2

biological target: HLA-B*5101 (human); assay: as above

Binder	IC50 [nM]
B21	859
B22	122
B23	306
B24	7.9
B25	37
B26	157
B27	10
B28	131
B29	71
B30	6.9
B32	458
B33	2.4
B34	63
B35	26
B36	190
B38	663
B39	4.6

biological target: HLA-B*0702 (human); assay: as above

Binder	IC50 [nM]
B21	1.4
B22	22
B23	0.6
B24	112
B25	344
B26	423
B27	177
B28	229
B29	2
B30	61
B31	68
B32	81
B33	66
B34	220
B35	229
B36	6.7
B37	212
B38	290

biological target: HLA-B*5301 (human); assay: as above

Binder	IC50 [nM]
B21	8460
B22	930
B23	547
B24	358
B25	12
B26	6200
B27	344
B28	775
B29	1520
B30	581
B31	18
B32	443
B33	1.9
B34	2910
B35	194
B37	28
B38	3000
B39	66

biological target: HLA-A*1101 (human); assay: competitive inhibition of 125I-labeled probe peptide binding to purified HLA-A*1101, gel filtration

Binder	relative binding ratio
B40	-0.0002 ratio (IC50 of standard peptide / IC50 of test peptide)
B41	0.0007 ratio (IC50 of standard peptide / IC50 of test peptide)
B42	0.0042 ratio (IC50 of standard peptide / IC50 of test peptide)
B43	-0.0001 ratio (IC50 of standard peptide / IC50 of test peptide)
B44	0.0001 ratio (IC50 of standard peptide / IC50 of test peptide)
B45	-0.0002 ratio (IC50 of standard peptide / IC50 of test peptide)
B46	0.0021 ratio (IC50 of standard peptide / IC50 of test peptide)
B47	0.0001 ratio (IC50 of standard peptide / IC50 of test peptide)
B48	0.0004 ratio (IC50 of standard peptide / IC50 of test peptide)
B49	0.01 ratio (IC50 of standard peptide / IC50 of test peptide)
B50	0.031 ratio (IC50 of standard peptide / IC50 of test peptide)
B51	0.0002 ratio (IC50 of standard peptide / IC50 of test peptide)
B52	0.0004 ratio (IC50 of standard peptide / IC50 of test peptide)
B53	0.0005 ratio (IC50 of standard peptide / IC50 of test peptide)

biological target: HLA-A*6801 (human); assay: inhibition of 125I probe peptide binding to purified HLA

Binder	IC50 [nM]
B54	4
B55	320

biological target: HLA-A*0301 (human); assay: as above

Binder	IC50 [nM]
B54	100
B55	1620

biological target: HLA-A*3101 (human); assay: as above

Binder	IC50 [nM]
B54	13
B55	40
